From paper PMC5348300 (Journal of the American Chemical Society, 2017)

Target: the molecule itself
Assay: crystal structure

B1: coproheme decarboxylase (HemQ) from Geobacillus stearothermophilus (enzyme)
chain: MSEAAQTLDGWYCLHDFRTIDWSAWKTLPNEEREAAISEFLALVDQWETTESEKQGSHAVYTIVGQKADILFMILRPTLDELHEIETALNKTKLADYLLPAYSYVSVVELSNYLASGSEDPYQIPEVRRRLYPILPKTNYICFYPMDKRRQGNDNWYMLSMEQRRELMRAHGMTGRKYAGKVTQIITGSVGLDDFEWGVTLFSDDALQFKKLVYEMRFDEVSARFGEFGSFFVGTRLPMENVSSFFHV
  stoichiometry N: 5
